Among the data in a protein production outcome set (Wang et al. 2014) are protein production values, retold here.

The series in a line: label from the status in PepcDB records.

For the sequence “MGTDTAQARPTDEAAERRREQRGWYFYDWACSVYSTSVLTVFLGPYLTSVAKSAADADGYVHPLGVPVRAGSFFAYSVSLSVIVAVVVMPLVGAAADRTGRKKPLLAVTAYVGAAATAGMFFLDGDRYLLGGVLLLVANAAQAVSMMLYNSYLPQIAPPEERDAVSSRGWAFGYAAGALVLIANLVLFLAHDSFGVSESTAVRICLASAGLWWGAFTLIPLKRLRDRGSPVKEITAPGPRRLAATVRDMRRHPLTLSFLLAYLIYNDGIQTVISQASVYGSEELGLSQSTLIVAVLLVQVLAVGGALGMGRLARTYGARRTILGSLVAWTVTLGAGYFLPAGAPFWFFVLASGIGLVLGGSQALSRSLFSHLVPAGKEAEYFSAYEMSDRGMSWLGPLLFGLTYQLTGSYRDAIISLVAFFVVGFVLLARVPVRQAVRDAGNSVPERI”, the protein production result is “failed”.

As for “MGTEATEQVSWGHYSGDEEDAYSAEPLPELCYKADVQAFSRAFQPSVSLTVAALGLAGNGLVLATHLAARRAARSPTSAHLLQLALADLLLALTLPFAAAGALQGWSLGSATCRTISGLYSASFHAGFLFLACISADRYVAIARALPAGPRPSTPGRAHLVSVIVWLLSLLLALPALLFSQDGQREGQRRCRLIFPEGLTQTVKGASAVAQVALGFALPLGVMVACYALLGRTLLAARGPERRRALRVVVALVAAFVVLQLPYSLALLLDTADLLAARERSCPASKRKDVALLVTSGLALARCGLNPVLYAFLGLRFRQDLRRLLRGGSCPSGPQPRRGCPRRPRLSSCSAPTETHSLSWDN”, the protein production result is “failed”.

Take “MGTETVVHDQARWAMAAMERRLAVAKAQLLQQQQQKNEKDKKGTSDVDVSMKESHQADSLPTPSKTSIKKVDPKDDDSVAYTKLSHPVDENLLATNVKFSSAKGTIVDKVLHNLLRSGDSAQKYLQGTKSVKLDNYILLDNFVQSRSSASGSKKASQKDSKRSKSRMSMKRLKKSGALHIPKDLQKFDLFKPMHGMWESYMMKLIKVTGKIQLSLTLLSADLHGAFMFGNPSFFHKSVVLGYDLLSLTHFPKLNFSQPILLVTVAECKIASFTGVQGIMVRETSETFGIITRDDKFRGILKLFSPIYLP”: the protein production result is recorded as “failed”.

As to “MGTFIEPSKVTLKDYLNHWLEIKSMSIEKSTFAGYKAFINQHVIPSIGMVTLHKLNVIHIQKCYKTAIDKGIANNSILLMHRILKSALNLAVKQNIISRNPADFAEIPLEHHHHHH”, the protein production entry is recorded as “failed”. The entry for “MGTKERILEVSKELFFEKGYQGTSVEEIVKRANLSKGAFYFHFKSKEELITEIIERTHKKIISLFEENKEKTPEELLEMFLEVLYREKKVVYIFLFDLLCSEKFRNIYFEKIEDAKRRFEKFLEKHFPSKAEILSEIILGFLRQLILHYVIKEERELPFLKEKLREGLKLIFEGVKKCG” is “not failed”. As to “MGTTGFTIIDLIILIVYLLAVLVAGIYFSKKEMKGKEFFKGDGSVPWYVTSVSIFATMLSPISFLGLAGSSYAGSWILWFAQLGMVVAIPLTIRFILPIFARIDIDTAYDYLDKRFNSKALRIISALLFIIYQLGRMSIIMYLPSAGLSVLTGIDINILIILMGVVAIVYSYTGGLKSVLWTDFIQGVILISGVVLALFVLIANIKGGFGAVAETLANGKFLAANEKLFDPNLLSNSIFLIVMGSGFTILSSYASSQDLVQRFTTTQNIKKLNKMLFTNGVLSLATATVFYLIGTGLYVFYQVQNADSAASNIPQDQIFMYFIAYQLPVGITGLILAAIYAASQSTISTGLNSVATSWTLDIQDVISKNMSDNRRTKIAQFVSLAVGLFSIGVSIVMAHSDIKSAYEWFNSFMGLVLGLLGGVFILGFVSKKANKQGAYAALIVSTIVMVFIKYFLPPTAVSYWAYSLISISVSVVSGYIVSVLTGNKVSAPKYTTIHDITEIKADSSWEVRH”, the protein production result was “failed”. As for “MGTTQLESVPEPKYWHLKTVLSEALDSEFSVGEILPNERDLAARFGVARATLRQALEQLELEGRLQRRRGVGTTVAPPRMGVAVGSEQHTWPGAAGDAWQPVDCTVAAPPPAVAGVLETGRNEQVHTVRRSRVTHGHPVAAELLYIPDFSVPDLSAIDAPSGAARARAVLRELQRLELEGQDRAVELGSARAEDAKELDRLPGAPVLVVTTRFFAEGRAAAVSVATYRADTCRLTFGDSGGVEIHHDPERRAS”, the protein production entry was “failed”. Regarding “MGTYVEPSKLSYGEYLESWFNTKRHSVGIQTAKVLKGYLNSRIIPSLGNIKLAKLTSLHMQNYVNSLRDEGLKRGTIEKIIKVIRNSLEHAIDLELITKNVAAKTKLPKADKEELEHHHHHH”, the protein production entry is “failed”. Turning to “MGVFLDKSIKDVVDGLNVRYFLPDIQREYVWLKKADEKKIEQLFDSILRGYPIGSFLFWKLQKEDIAKSDEQDSDKLNFQLYQFITNYDVRKPHNEKIRIEQINRDDLYIVANSV”, the protein production result is given as “failed”.
